Earlier results on two substances are cited in PMC9705454 (Clinical Drug Investigation, 2022).

The conditions of series [1]: metabolite slowly released from the subcutaneous depot.

Regarding insulin glargine, the “share of plasma exposure accounted for by the main active metabolite” value in series [1] is given as more than 90%.
Take teduglutide: the half-life in circulation result is “approximately 2 h”.
